Experimental data from patent US20190119406A1 (BISON THERAPEUTICS, published 2019).

Target: T1, Mutant OA chain (long chain, CH1-hinge-CH2-CH3 with P395K, P396K, V397K) (human, UniProt P01857-1 1-330 = IgG part, P395K; P396K; V397K)
T1 construct: domain: CH1-hinge-CH2-CH3; Expressed alone it is expected as a long chain homodimer; also called OA mutation chain; Mutation OA chain
Test: three independent co-transfections in HEK293, protein A bead pull-down, SDS-PAGE (FIG. 6)
Protocol: DNA encoding long chain and short chain were mixed with 1:1 ratio and transfected into HEK293 cells. Three days later, cell culture supernatants were harvested and subjected to magnetic protein A beads pull-down. Proteins bound to magnetic beads were analyzed by SDS-PAGE electrophoresis.
Various positive charged and negative charged polypeptide chain combinations were co-expressed in HEK 293 cells. […] Three days after transfection, cell culture supernatants were harvested by centrifugation and subjected to protein A magnetic beads (Pierce) pull down. Protein products bound on magnetic beads were characterized based on their mobility on SDS-PAGE gel electrophoresis. Collected protein A magnetic beads with bound proteins were re-suspended in 30 μL PBS buffer, mixed with 30 μL of SDS-PAGE loading buffer and boiled for 5 min. Half volume of boiled samples was loaded onto 10% SDS-PAGE to separate long chain homodimer, long chain and short chain heterodimer and short chain homodimer.

B1: Mutant OB chain (short chain, hinge-CH2-CH3 with T394D, P395D, P396D) (other, human, UniProt P01857-1 104-330, looked up, name in EU numbering)
chain: DKTHTCPPCPAPELLGGPSVFLFPPKPKDTLMISRTPEVTCVVVDVSHEDPEVKFNWYVDGVEVHNAKTKPREEQYNSTYRVVSVLTVLHQDWLNGKEYKCKVSNKALPAPIEKTISKAKGQPREPQVYTLPPSRDELTKNQVSLTCLVKGFYPSDIAVEWESNGQPENNYKTDDDVLDSDGSFFLYSKLTVDKSRWQQGNVFSCSVMHEALHNHYTQKSLSLSPGK
notes: domain: hinge-CH2-CH3; also called OB mutation chain; Mutation OB chain
Question: Does B1 bind?
Answer: binds
